From patent US20110251266A1 come the findings set out here.

In the test the target is Human NGF (manufactured by R&D Systems) (human) (UniProt P01138). Kind of test: cell-based or functional assay.
Sequence of Human NGF (manufactured by R&D Systems) (human) (P01138 122-241 limits assumed): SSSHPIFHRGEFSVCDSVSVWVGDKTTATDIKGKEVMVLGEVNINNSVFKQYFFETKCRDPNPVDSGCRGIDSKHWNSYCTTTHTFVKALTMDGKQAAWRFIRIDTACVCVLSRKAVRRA

Turning to “anti-NGF antibody (MAB2561, R&D Systems)”, the inhibitory activity (neurite outgrowth of PC-12 cells) is above 50%.
